B1: scFv D7, purified (c-myc and 6xHis tags) (scFv)
scFv: MAEVQLVESGGSLVKPGGSLRLSCAASGFTFSNYYMNWVRQAPGKGLEWISDIYGSSRYISYADFVKGRFTISRDNATNSLYLQMNSLRAEDTAVYYCVRSSSNDGGGMDVWGRGTLVTVSSGGGGSGGGGSGGGGSQSVLTQPASVSGSPGQSITISCAGTSSDVGGNNYVSWYQQHPGKAPKLMIYYDSYRPSGVSNRFSGSKSGNTASLTISGLQAEDEADYYCSSYTYSSTRVFGGGTKLAVLG
notes: VH of scFv D7 as printed; linker of the HuscI library between VH and VL; VL of scFv D7; Selected from the human synthetic HuscI library; The scFv was moved as an NcoI-NotI fragment from pHEN-HuscI into pET-23NN, which adds c-myc and 6xHis at the 3' end; source: E. coli BL21(DE3)pLysS, pET-23NN vector, purified (Ni-NTA, dialysed in MilliQ water); not shown: c-myc, C-terminal, kept; His6, …
B2: scFv B1, purified (c-myc and 6xHis tags) (scFv)
scFv: MAEVQLVESGGSLVKPGGSLRLSCAASGFTFSNYDMNWVRQAPGKGLEWISDIDGSSRNIYYADFVKGRFTISRDNATNSLYLQMNSLRAEDTAVYYCVRSSYYDNGMDVWGRGTLVTVSSGGGGSGGGGSGGGGSQSVLTQPASVSGSPGQSITISCAGTSSDVGGYDGVSWYQQHPGKAPKLMIYYDSYRPSGVSNRFSGSKSGNTASLTISGLQAEDEADYYCSSYTYYSTRVFGGGTKLAVLG
notes: VH of scFv B1 as printed; linker of the HuscI library between VH and VL; VL of scFv B1; Selected from the human synthetic HuscI library; The scFv was moved as an NcoI-NotI fragment from pHEN-HuscI into pET-23NN, which adds c-myc and 6xHis at the 3' end; source: E. coli BL21(DE3)pLysS, pET-23NN vector, purified (Ni-NTA, dialysed in MilliQ water); not shown: c-myc, C-terminal, kept; His6, …

Molecular target: T1, commercial recombinant human full-length wtTDP-43 (Abcam, ab224788) (human, UniProt Q13148 1-414)
T1 construct: TDP-43 (TARDBP), human, wild type, recombinant full length; also called recombinant wtTDP-43; source: bought: Abcam, ab224788
Experiment: ELISA; indirect ELISA: wells coated overnight at 4 °C with commercial human wtTDP-43 at 1 µg/mL in PBS; purified scFv at 1, 5 or 10 µg/mL, 1 h at RT; detected with HRP-conjugated anti-6xHis antibody, absorbance at 450 nm
Details: both partners purified

T1 sequence (Q13148 whole entry): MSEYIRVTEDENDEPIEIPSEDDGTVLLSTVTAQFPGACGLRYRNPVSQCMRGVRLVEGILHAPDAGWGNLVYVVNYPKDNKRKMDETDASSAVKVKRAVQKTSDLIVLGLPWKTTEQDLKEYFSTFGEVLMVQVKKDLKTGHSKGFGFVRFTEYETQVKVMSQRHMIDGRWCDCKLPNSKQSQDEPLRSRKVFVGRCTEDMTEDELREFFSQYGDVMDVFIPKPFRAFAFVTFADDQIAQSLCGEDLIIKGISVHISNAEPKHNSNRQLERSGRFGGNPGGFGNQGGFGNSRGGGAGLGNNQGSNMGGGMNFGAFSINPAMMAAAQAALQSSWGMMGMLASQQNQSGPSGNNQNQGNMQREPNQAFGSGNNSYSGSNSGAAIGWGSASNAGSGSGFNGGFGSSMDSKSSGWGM

fold increase of the ELISA signal over the control scFv 13R4 at 5 µg/mL [fold]	fold increase of the ELISA signal over the control scFv 13R4 at 10 µg/mL [fold]	Binder
2	2	B1
5	3	B2

Source: publication PMC12321133, “scFv intrabody targeting wildtype TDP-43 presents protective effects in a cellular model of TDP-43 proteinopathy” (PLOS One, 2025)
